Test results reported in ChEMBL document CHEMBL1132501, “Synthesis and anti-Helicobacter pylori activity of FR182024, a new cephem derivative” (1999).

What was measured:
[1] = substrate: O=C(Cc1cccs1)N[C@@H]1C(=O)N2C(C(=O)[O-])=C(C[n+]3ccccc3)CS[C@H]12; test: The compound was tested against Bacteroides fragilis FP784 and its stability towards beta-lactamase relative to cephaloridine was evaluated; format: functional
[2] = substrate: O=C(Cc1cccs1)N[C@@H]1C(=O)N2C(C(=O)[O-])=C(C[n+]3ccccc3)CS[C@H]12; test: The compound was tested against Bacteroides fragilis FP784 and its stability towards beta-lactamase was evaluated; format: functional

B1: Beta-lactamase (Enterobacter cloacae), P05364 (protein)
chain: MMRKSLCCALLLGISCSALATPVSEKQLAEVVANTITPLMKAQSVPGMAVAVIYQGKPHYYTFGKADIAANKPVTPQTLFELGSISKTFTGVLGGDAIARGEISLDDAVTRYWPQLTGKQWQGIRMLDLATYTAGGLPLQVPDEVTDNASLLRFYQNWQPQWKPGTTRLYANASIGLFGALAVKPSGMPYEQAMTTRVLKPLKLDHTWINVPKAEEAHYAWGYRDGKAVRVSPGMLDAQAYGVKTNVQDMANWVMANMAPENVADASLKQGIALAQSRYWRIGSMYQGLGWEMLNWPVEANTVVEGSDSKVALAPLPVAEVNPPAPPVKASWVHKTGSTGGFGSYVAFIPEKQIGIVMLANTSYPNPARVEAAYHILEALQ
Vmax [1]: 1 | Km [2]: 31.7 µg/mL
